{"source": "paper PMC4366142", "origin": "cited, not measured here", "molecular_target": "muscle voltage-gated sodium channel (UniProt P15390)", "sequence (P15390 whole entry)": "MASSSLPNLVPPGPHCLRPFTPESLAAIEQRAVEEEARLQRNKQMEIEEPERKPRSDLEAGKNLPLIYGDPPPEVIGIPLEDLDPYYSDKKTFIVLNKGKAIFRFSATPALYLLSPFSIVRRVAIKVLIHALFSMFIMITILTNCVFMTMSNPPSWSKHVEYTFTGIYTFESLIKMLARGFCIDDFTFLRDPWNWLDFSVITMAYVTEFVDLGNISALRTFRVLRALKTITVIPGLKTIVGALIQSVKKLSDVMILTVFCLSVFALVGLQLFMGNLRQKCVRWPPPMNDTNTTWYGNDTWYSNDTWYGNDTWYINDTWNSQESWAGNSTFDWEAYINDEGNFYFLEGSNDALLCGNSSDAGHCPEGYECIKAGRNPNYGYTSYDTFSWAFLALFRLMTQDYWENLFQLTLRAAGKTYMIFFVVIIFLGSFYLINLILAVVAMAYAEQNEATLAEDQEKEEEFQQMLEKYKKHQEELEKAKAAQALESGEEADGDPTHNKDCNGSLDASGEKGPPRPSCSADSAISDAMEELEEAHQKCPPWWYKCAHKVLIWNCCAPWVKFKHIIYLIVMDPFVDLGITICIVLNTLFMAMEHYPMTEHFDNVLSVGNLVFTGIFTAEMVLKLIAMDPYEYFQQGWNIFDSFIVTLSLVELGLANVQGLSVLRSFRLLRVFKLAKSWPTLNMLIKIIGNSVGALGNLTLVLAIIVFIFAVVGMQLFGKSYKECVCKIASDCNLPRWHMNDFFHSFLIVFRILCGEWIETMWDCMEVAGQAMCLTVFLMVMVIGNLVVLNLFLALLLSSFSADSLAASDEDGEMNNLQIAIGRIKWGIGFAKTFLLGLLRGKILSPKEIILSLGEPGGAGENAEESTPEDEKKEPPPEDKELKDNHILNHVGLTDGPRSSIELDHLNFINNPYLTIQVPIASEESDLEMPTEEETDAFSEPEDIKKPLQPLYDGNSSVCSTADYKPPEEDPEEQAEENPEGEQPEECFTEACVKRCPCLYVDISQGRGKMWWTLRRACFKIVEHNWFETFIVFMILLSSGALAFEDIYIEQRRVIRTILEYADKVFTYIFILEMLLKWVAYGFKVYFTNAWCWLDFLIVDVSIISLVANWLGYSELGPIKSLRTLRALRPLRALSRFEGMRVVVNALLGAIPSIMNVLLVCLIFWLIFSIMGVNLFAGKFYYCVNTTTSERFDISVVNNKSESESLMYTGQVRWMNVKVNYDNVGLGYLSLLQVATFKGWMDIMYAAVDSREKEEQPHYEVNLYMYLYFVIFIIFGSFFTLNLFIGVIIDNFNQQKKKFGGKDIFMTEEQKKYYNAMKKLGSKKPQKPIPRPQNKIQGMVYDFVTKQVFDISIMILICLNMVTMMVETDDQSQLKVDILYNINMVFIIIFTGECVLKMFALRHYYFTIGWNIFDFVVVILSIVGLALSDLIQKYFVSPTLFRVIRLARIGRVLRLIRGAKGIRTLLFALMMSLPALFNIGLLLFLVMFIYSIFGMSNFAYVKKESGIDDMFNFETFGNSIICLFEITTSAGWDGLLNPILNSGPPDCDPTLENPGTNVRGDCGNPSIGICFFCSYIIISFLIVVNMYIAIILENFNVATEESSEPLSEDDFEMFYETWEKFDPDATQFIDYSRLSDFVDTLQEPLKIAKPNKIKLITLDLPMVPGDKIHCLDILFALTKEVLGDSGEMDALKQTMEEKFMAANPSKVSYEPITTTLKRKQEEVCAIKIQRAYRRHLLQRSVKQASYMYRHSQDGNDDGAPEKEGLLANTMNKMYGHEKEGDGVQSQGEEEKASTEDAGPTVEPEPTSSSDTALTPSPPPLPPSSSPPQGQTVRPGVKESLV", "data": [{"substance": "μ-conotoxin GIIIA (from UniProt P01523)", "values": [{"measurement": "Kd", "result": 0.025, "unit": "µM"}]}]}
